This is an account of results in patent US20240398973A1, “ENGINEERED ANTIBODY COMPOUNDS AND CONJUGATES THEREOF” (Eli Lilly and Company, priority 2017, published 2024).

Where “and” joins values, the source holds several entries; their conditions need not be identical. Identical values can stand only once.

For experiment [1], the system named is A549 human lung carcinoma cells. The experiment in a line: PMN-mediated killing of A549 tumor cells (xCelligence). The format is cell-based. Particulars: 2 hours, mean ± SD, n=4. As to the method:
(§1) Antibody-targeted killing of tumor cells by PMNs is measured using the xCelligence Real Time Cell Analysis system (ACEA Biosciences). This system monitors cell viability in real time by recording electrical impedance between sensors on the growth surface of culture plates. It reports a normalized cell index (NCI) that is normalized to control cells in parallel wells and allows one to control for relative culture viability. NCIs are measured continuously at 15 minute intervals for 24 hours following incubation of tumor cultures with targeted antibodies and addition of human primary PMNs at a 10:1 PMN to tumor cell ratio. Prior to seeding with tumor cells, xCelligence 96-well E-Plates are calibrated for background signal. Each well receives 50 μl of culture medium (RPMI+10% FBS+antibiotics) and the E-plate is equilibrated to 37° C. in a humidified incubator containing the xCelligence plate reader.
(§2) After equilibration, E-Plate well variations in background are measured. Cultured tumor cell lines are dissociated, counted and diluted to a final density of 1×10^5 cells/ml in culture medium and 100 μl of diluted tumor cells were plated into E-Plate wells. The E-Plate is returned to the xCelligence reader and cell indices are measured in 15 minute intervals overnight to establish baseline.
(§3) The next day, PMNs are isolated from fresh human blood samples and brought to a final density of 2×10^6 cells/ml in culture medium. Following overnight recording, the E-Plate is removed from the xCelligence reader and 22 μl of 10× antibody solution or buffer is added to designated wells. After 15 minutes, 50 μl of diluted PMNs (1×10^5 total cells) or buffer was added to designated wells. Immediately after PMN addition, the E-Plate is returned to the xCelligence reader and cell indices were measured for up to 72 hours. After completion of the experiment, cell indices are normalized (NCI) to the time point immediately preceding the addition of antibodies.
(§4) Percent NCI is defined as ((NCI of sample)/(NCI of Tumor Cells Alone)×100). For non-adherent tumor cells (Daudi cells), the xCelligence Immunotherapy Kit-B Cell Killing Assay (ACEA #8100004) is used to tether the tumor cells to E-Plate wells according to manufacturer protocols. Following tethering and background acquisition, the protocols are performed as indicated above.
Adherent MET(+) A549 human lung carcinoma cells are plated for approximately 24 hours, then incubated with Emibetuzumab-G4-fMLFK-HC-124C-375C or emibetuzumab-G4-UC-HC-124C-375C and exposed to primary human PMNs at 10:1 effector to target cell ratio.
Percent NCI values represent relative viability of A549 cells following 2 hours of exposure to the stated conditions. Values are given as mean percentage normalized to “+PMN” control±SD; n=4 for all conditions. Statistical significance was determined by one-way ANOVA followed by post-hoc Dunnett's multiple comparisons test vs “+PMN”. NCI, normalized cell index; PMN, primary human polymorphonuclear neutrophils; ns, not significant.

Experiment [2] deals with human primary PMNs. The experiment in a line: PMN reactive oxygen species (ROS) production, luminol-amplified chemiluminescence. Type of experiment: cell-based. Particulars: for PMN ROS production: relative to 1000 nM fMLF, AUC 5 minutes (Tables 9, 11).
Description: Production of ROS by human primary PMNs is measured using luminol-amplified chemiluminescence. Following isolation, PMNs are suspended at 1×10^6 cells/ml in HBSS containing calcium and magnesium (Gibco #14025-092) supplemented with 0.25% human serum albumin (Gemini Bio producst #800-124) and 50 uM Luminol (SigmaAldrich #123072-2.5G). 100 μl of cell suspension (1×10^5 total cells) is then distributed into each well of a 96-well plate suitable for fluorescence measurement (Greiner #655098) and temperature equilibrated to 37° C. for 5 minutes. Following equilibration, 10× solution of antibody conjugate is applied to the wells, achieving a 1× final concentration.
Immediately after the addition of antibody conjugate, chemiluminescence signal is recorded in a luminometer maintained at 37° C. with 0.01 seconds dwell time per well, 20 seconds total time between sequential plate readings and 45 minutes total run time (PerkinElmer EnVision Multilabel Plate Reader).
In experiment [3] the test system is Daudi B lymphoblast cells. As to the kind of experiment: PMN-mediated killing of DAUDI tumor cells (xCelligence). Type of experiment: cell-based, human. Particulars: 6 hours, mean ± SD, n=4, normalized to Buffer control. As to the method: as §1, §2, §3, §4
Non-adherent, CD20+ Daudi B lymphoblast cells are immobilized with xCelligence Immunotherapy Kit (ACEA #8100004) to tether the tumor cells to E-Plate wells according to manufacturer protocols, and are exposed to conditions shown below in Table 16. Percent NCI values represent relative viability of DAUDI cells following 6 hours of exposure to the stated conditions. Values are given as mean percentage normalized to “Buffer control” ±SD; n=4 for all conditions. Statistical significance was determined by one-way ANOVA followed by post-hoc Dunnett's multiple comparisons test vs “+PMN”.

B1: Emibetuzumab-G4(PAA)-UC-HC-124C-375C: unconjugated emibetuzumab IgG4(PAA) with HC 124C and 375C; HC SEQ ID NO:4, LC SEQ ID NO:5 (antibody)
heavy: QVQLVQSGAEVKKPGASVKVSCKASGYTFTDYYMHWVRQAPGQGLEWMGRVNPNRRGTTYNQKFEGRVTMTTDTSTSTAYMELRSLRSDDTAVYYCARANWLDYWGQGTTVTVSSASTKGPCVFPLAPCSRSTSESTAALGCLVKDYFPEPVTVSWNSGALTSGVHTFPAVLQSSGLYSLSSVVTVPSSSLGTKTYTCNVDHKPSNTKVDKRVESKYGPPCPPCPAPEAAGGPSVFLFPPKPKDTLMISRTPEVTCVVVDVSQEDPEVQFNWYVDGVEVHNAKTKPREEQFNSTYRVVSVLTVLHQDWLNGKEYKCKVSNKGLPSSIEKTISKAKGQPREPQVYTLPPSQEEMTKNQVSLTCLVKGFYPCDIAVEWESNGQPENNYKTTPPVLDSDGSFFLYSRLTVDKSRWQEGNVFSCSVMHEALHNHYTQKSLSLSLG
light: DIQMTQSPSSLSASVGDRVTITCSVSSSVSSIYLHWYQQKPGKAPKLLIYSTSNLASGVPSRFSGSGSGTDFTLTISSLQPEDFATYYCQVYSGYPLTFGGGTKVEIKRTVAAPSVFIFPPSDEQLKSGTASVVCLLNNFYPREAKVQWKVDNALQSGNSQESVTEQDSKDSTYSLSSTLTLSKADYEKHKVYACEVTHQGLSSPVTKSFNRGEC
modifications: SITE 122 THIOETH - position 122 is cysteine residue modified by thioether bond formation to maleimide-polyethylene glycol (PEG) linker; SITE 370 THIOETH - position 370 is cysteine residue modified by thioether bond formation to maleimide-polyethylene glycol (PEG) linker
B1: the “Percent NCI” value in experiment [1] (A549, 3 nM + PMN) was 102.3 ± 1.7%; in experiment [1] (A549, 3 nM without PMN), 101.3 ± 0.7%; in experiment [1] (A549, 10 nM + PMN), 102.5 ± 1.9%; in experiment [1] (A549, 10 nM + PMN, listed as emibetuzumab-G4-UC-HC-124C-375C), 102.5±1.9%; in experiment [1] (A549, 10 nM without PMN), 100.8 ± 1%; in experiment [1] (A549, 30 nM + PMN) it was 102.7 ± 1.5%. Besides, the “Percent NCI” value is reported as 100.1 ± 0.9% in experiment [1] (A549, 30 nM without PMN); 102.9 ± 1.5% in experiment [1] (A549, 100 nM + PMN); 100.8 ± 1.4% in experiment [1] (A549, 100 nM without PMN); 102.3 ± 1.8% in experiment [1] (A549, 300 nM + PMN); 102.8 ± 4.9% in experiment [1] (A549, 300 nM without PMN).

B2: AME133-G1(IQ)-UC-HC-124C-378C: unconjugated AME133 (anti-CD20) IgG1(IQ) with HC 124C and 378C; HC SEQ ID NO:8, LC SEQ ID NO:9 (antibody)
heavy: EVQLVQSGAEVKKPGESLKISCKGSGRTFTSYNMHWVRQMPGKGLEWMGAIYPLTGDTSYNQKSKLQVTISADKSISTAYLQWSSLKASDTAMYYCARSTYVGGDWQFDVWGKGTTVTVSSASTKGPCVFPLAPSSKSTSGGTAALGCLVKDYFPEPVTVSWNSGALTSGVHTFPAVLQSSGLYSLSSVVTVPSSSLGTQTYICNVNHKPSNTKVDKKVEPKSCDKTHTCPPCPAPELLGGPSVFLFPPKIKDTLMISRTPEVTCVVVDVSHEDPEVKFNWYVDGVEVHNAKTKPREEQYNSTYRVVSVLTVLHQDWLNGKEYKCKVSNKALPAPIEKTISKQKGQPREPQVYTLPPSRDELTKNQVSLTCLVKGFYPSDICVEWESNGQPENNYKTTPPVLDSDGSFFLYSKLTVDKSRWQQGNVFSCSVMHEALHNHYTQKSLSLSPG
light: EIVLTQSPGTLSLSPGERATLSCRASSSVPYIHWYQQKPGQAPRLLIYATSALASGIPDRFSGSGSGTDFTLTISRLEPEDFAVYYCQQWLSNPPTFGQGTKLEIKRTVAAPSVFIFPPSDEQLKSGTASVVCLLNNFYPREAKVQWKVDNALQSGNSQESVTEQDSKDSTYSLSSTLTLSKADYEKHKVYACEVTHQGLSSPVTKSFNRGEC
modifications: SITE 128 THIOETH - position 128 is cysteine residue modified by thioether bond formation to maleimide-polyethylene glycol (PEG) linker; SITE 382 THIOETH - position 382 is cysteine residue modified by thioether bond formation to maleimide-polyethylene glycol (PEG) linker
As to B2, the “PMN ROS production” value in experiment [2] (1 nM) came to 10.3 percentage; in experiment [2] (3 nM), 10.6 percentage; in experiment [2] (10 nM), 10.6 percentage; in experiment [2] (30 nM), 10.5 percentage; in experiment [2] (100 nM) it was 10.3 percentage; in experiment [2] (300 nM), 11.4 percentage. In addition, in experiment [2] (1000 nM), the “PMN ROS production” value is listed as 13.9 percentage. Besides, in experiment [2] (300 nM, Buffer, relative to fMLF, AUC 5 minutes (Table 12a)), the “PMN ROS production, Exposure: Buffer” value is listed as 25.3 percentage. The “PMN ROS production, Exposure: Cyclosporin H” value in experiment [2] (300 nM, PMNs pre-incubated with 1 uM Cyclosporin H for 30 minutes, relative to fMLF (Table 12a)) came out at 19.7 percentage. The “Percent NCI” value in experiment [3] (10 nM + PMN) was 58.7 ± 13.2%; in experiment [3] (10 nM without PMN) it was 97.7 ± 1.4%; in experiment [3] (30 nM + PMN), 93.4 ± 22.4%; in experiment [3] (30 nM without PMN, listed as AME133-G1(IQ)-UC-124C-378C) it was 97.3±1.2% and 97.3 ± 0.6%; in experiment [3] (100 nM + PMN) it was 114 ± 6.9%; in experiment [3] (100 nM without PMN), 90.9 ± 0.6%. Moreover, the “Percent NCI” value in experiment [3] (300 nM + PMN) came to 113.2 ± 7.2%; in experiment [3] (300 nM without PMN), 87.7 ± 1.5%.
